Measured values reported in US20060246084A1.

How the values were obtained:
[1] = molecular target: synthetic fragment of the mouse TLR-2 extracellular domain (mouse)
[2] = molecular target: receptors of human cells in the presence of IFN-α2 (human) (UniProt P01563); assay: 125I-LcrV68-326 plus unlabelled IFN-α2 on U937 cells
[3] = molecular target: receptors of human cells in the presence of IFN-α2 (human) (UniProt P01563); assay: 125I-LcrV68-326 plus unlabelled IFN-α2 on human monocytes
[4] = molecular target: receptors of human cells in the presence of IFN-α2 (human) (UniProt P01563); assay: 125I-LcrV68-326 plus unlabelled IFN-α2 on human thymocytes
[5] = molecular target: receptors of human cells in the presence of IFN-α2 (human) (UniProt P01563); assay: 125I-LcrV68-326 plus unlabelled IFN-α2 on human neutrophils
[6] = molecular target: IFN-γ receptor on human cells (no IFN-γ added) (human) (UniProt P15260); assay: 125I-LcrV68-326 alone on U937 cells
IFN-γ receptor on human cells (no IFN-γ added) (human), sequence (P15260 18-489): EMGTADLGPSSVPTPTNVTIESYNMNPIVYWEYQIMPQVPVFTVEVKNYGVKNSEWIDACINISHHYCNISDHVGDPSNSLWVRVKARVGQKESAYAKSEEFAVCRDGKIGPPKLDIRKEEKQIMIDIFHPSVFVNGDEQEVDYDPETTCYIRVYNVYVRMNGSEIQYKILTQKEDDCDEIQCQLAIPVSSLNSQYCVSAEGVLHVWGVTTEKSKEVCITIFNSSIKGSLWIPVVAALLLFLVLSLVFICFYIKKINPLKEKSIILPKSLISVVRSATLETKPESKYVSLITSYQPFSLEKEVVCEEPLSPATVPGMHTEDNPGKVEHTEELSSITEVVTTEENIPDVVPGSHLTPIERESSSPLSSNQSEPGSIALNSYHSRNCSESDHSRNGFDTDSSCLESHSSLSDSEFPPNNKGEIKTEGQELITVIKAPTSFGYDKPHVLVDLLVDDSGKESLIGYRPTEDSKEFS

[7] = molecular target: IFN-γ receptor on human cells (no IFN-γ added) (human) (UniProt P15260); assay: 125I-LcrV68-326 alone on human monocytes
[8] = molecular target: IFN-γ receptor on human cells (no IFN-γ added) (human) (UniProt P15260); assay: 125I-LcrV68-326 alone on human thymocytes
[9] = molecular target: IFN-γ receptor on human cells (no IFN-γ added) (human) (UniProt P15260); assay: 125I-LcrV68-326 alone on human neutrophils
[10] = molecular target: human TLR-2 receptor on CD14-positive human thymic epithelial VTEC2.HS cells (human) (UniProt O60603); assay: Scatchard analysis, 125I radioligand on VTEC2.HS cells
human TLR-2 receptor on CD14-positive human thymic epithelial VTEC2.HS cells (human), sequence (O60603 21-784): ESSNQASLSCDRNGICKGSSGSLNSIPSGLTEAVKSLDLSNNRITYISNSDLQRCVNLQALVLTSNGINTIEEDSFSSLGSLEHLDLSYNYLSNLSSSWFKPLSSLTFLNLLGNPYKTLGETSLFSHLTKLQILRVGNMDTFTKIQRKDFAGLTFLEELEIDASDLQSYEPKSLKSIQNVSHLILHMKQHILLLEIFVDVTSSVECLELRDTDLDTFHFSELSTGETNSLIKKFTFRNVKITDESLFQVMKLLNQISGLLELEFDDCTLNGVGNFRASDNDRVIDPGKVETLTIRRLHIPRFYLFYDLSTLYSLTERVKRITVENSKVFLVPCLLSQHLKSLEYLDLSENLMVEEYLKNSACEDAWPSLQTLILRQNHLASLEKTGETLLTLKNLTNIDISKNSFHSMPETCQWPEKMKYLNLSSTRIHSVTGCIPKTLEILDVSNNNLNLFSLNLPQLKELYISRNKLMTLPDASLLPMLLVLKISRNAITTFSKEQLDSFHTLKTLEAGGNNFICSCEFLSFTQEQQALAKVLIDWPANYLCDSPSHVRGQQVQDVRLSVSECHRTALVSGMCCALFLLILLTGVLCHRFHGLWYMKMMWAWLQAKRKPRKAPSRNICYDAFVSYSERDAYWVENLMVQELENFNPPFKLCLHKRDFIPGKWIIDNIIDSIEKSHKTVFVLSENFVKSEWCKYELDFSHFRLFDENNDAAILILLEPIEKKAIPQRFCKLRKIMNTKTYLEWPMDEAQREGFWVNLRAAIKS

[11] = molecular target: IFN-γ C-terminal peptide … (human)
[12] = molecular target: human TLR-2 receptor on CD14-positive human thymic epithelial VTEC2.HS cells (human) (UniProt O60603); assay: 125I radioligand on VTEC2.HS cells; binding not detectable

“LcrV68-326, N-terminally truncated LcrV (from UniProt P0C7U7 68-326)” was tested. Which Kd [1] did it give?
The Kd was 0.55 nM.

What about the Kd [2] of the same substance?
Its Kd is 1 mM.

And the Kd [3]?
Its Kd is 1 mM.

What about the Kd [4] of the same substance?
Its Kd is 1 mM.

And the Kd [5]?
Its Kd is 1 mM.

For “LcrV68-326, N-terminally truncated LcrV (from UniProt P0C7U7 68-326) (other; other documents disagree on this pair)”, which Kd [6] is on record?
Its Kd is 1 mM.

What about the Kd [7] of the same substance?
Its Kd is 1 mM.

And the Kd [8]?
Its Kd is 1 mM.

What about the Kd [9] of the same substance?
Its Kd is 1 mM.

And the Kd [10]?
Its Kd is 0.8 nM.

Which Kd [11] does the source give for “LcrV (V antigen) of Yersinia pestis KIM, recombinant, freed of hexahistidine (from UniProt P0C7U7 1-326)” here?
Its Kd is 6 pM.

Which Kd [12] does the source give for “LcrV (V antigen) of Yersinia pestis KIM, recombinant, freed of hexahistidine (from UniProt P0C7U7 1-326) (other; other documents disagree on this pair)” here?
Its Kd is 1 mM.
